Patent publication US20120027679A1 (CANON, published 2012)
Where no end group is shown, it is not given here. Side-chain parts run from the residue outwards. maleimide = maleimide group (reactive functional group for coupling a ligand); EO 2 kDa = ethylene oxide linker of molecular weight 2000

How the values were obtained:
[1] = target: T1, HER2 (epidermal growth factor receptor 2) on N87 cells (UniProt P04626 23-1255, limits assumed); experiment: saturation binding to N87 cells, Scatchard plot, apparent Kd; HBP3 particle
T1 construct: whole, on cells; N87 cells are used as HER2-positive cells; also called HER2-positive cells (N87); HER2-expressing cells
Procedure: (§1) Each particle was evaluated for its binding capability to HER2-expressing cells. On the day before evaluation, HER2-positive cells (N87 cells) were seeded over a 24-well plate (5×10⁵ cells/well). Next day, after medium removal, 200 μL of a growth medium was placed therein, and the particle sample was then added to each well. The plate was left standing in a CO₂ incubator at 37° C. for 4 hours. Then, the medium containing the particle was removed. The wells were fully washed twice with 1 mL of PBS. After removal of PBS, 1% Triton-X100/PBS solution was added at a concentration of 150 μL/well for cell lysis. The cells were incubated at room temperature for 2 hours or longer. […] The amount of iron in this acid lysate of the sample (6 N HCl solution, 300 μL) was measured to determine the concentration of the particle bound to the cell. A Scatchard plot was prepared from the saturation binding curve of the particle for N87, and an apparent equilibrium dissociation constant (Kd) of the particle for the cell was determined.
(§2) According to Example 8, a Scatchard plot was prepared from the saturation binding curve of each particle for N87 cells, and an apparent equilibrium dissociation constant (Kd) of the particle for the cell was determined.

[2] = target: T1, HER2 (epidermal growth factor receptor …); experiment: saturation binding to N87 cells (cell-bound iron measured), Scatchard plot, apparent Kd
Procedure: (§3) Each particle was evaluated for its binding capability to HER2-expressing cells. On the day before evaluation, HER2-positive cells (N87 cells) were seeded over a 24-well plate (5×10⁵ cells/well). Next day, after medium removal, 200 μL of a growth medium was placed therein, and the particle sample was then added to each well. The plate was left standing in a CO₂ incubator at 37° C. for 4 hours. Then, the medium containing the particle was removed. The wells were fully washed twice with 1 mL of PBS. After removal of PBS, 1% Triton-X100/PBS solution was added at a concentration of 150 μL/well for cell lysis. The cells were incubated at room temperature for 2 hours or longer. Subsequently, concentrated hydrochloric acid (12 N) was added at a concentration of 150 μL/well, and the cells were incubated at room temperature for 2 hours or longer. The amount of iron in this acid lysate of the sample (6 N HCl solution, 300 μL) was measured to determine the concentration of the particle bound to the cell. A Scatchard plot was prepared from the saturation binding curve of the particle for N87, and an apparent equilibrium dissociation constant (Kd) of the particle for the cell was determined.

[3] = target: T2, Recombinant Human ErbB2/Fc Chimera (R&D Systems, Inc.) (human, UniProt P04626 23-652); experiment: SPR (Biacore X), ErbB2/Fc on CM-5 chip, Scatchard plot of Req, apparent Kd of the particle
T2 construct: Bought; Amine-coupled to a CM-5 chip, about 1000 to 2000 RU; also called HER2; antigen; Fc part of the bought chimera not given

[4] = target: T1, HER2 (epidermal growth factor receptor …); experiment: saturation binding to N87 cells, Scatchard plot, apparent Kd
Procedure: as §3, §2

[5] = target: T1, HER2 (epidermal growth factor receptor …); experiment: saturation binding to N87 cells, Scatchard plot, apparent Kd; HBP1 particle
Procedure: as §1, §2

[6] = target: T1, HER2 (epidermal growth factor receptor …); experiment: saturation binding to N87 cells, Scatchard plot, apparent Kd; HBP2 particle
Procedure: as §1, §2

MARSGLGGKGSC([maleimide-PEG 300-iron oxide nanoparticle 200 nm]) (not fully specified) [HBP3-EO-NP-200: HER2-binding peptide-immobilized 200-nm particle containing an iron oxide particle]
Kd [1]: 0.49 nM

MARSGLGGKGSC([maleimide-PEG 300-iron oxide nanoparticle 20 nm]) (not fully specified) [HBP-EO-NP-20: HER2-binding peptide-immobilized 20-nm particle containing an iron oxide particle]
Kd [2]: 78 nM
Kd [3]: 36.7 nM

MARSGLGGKGSC([maleimide-EO 2 kDa-iron oxide nanoparticle 200 nm]) (not fully specified) [HBP2-EO2k-NP-200: HER2-binding peptide-immobilized 200-nm particle with ethylene oxide linker of molecular weight 2000, listing 1 of 4 here]
Kd [4]: 0.09 nM

MARSGLGGKGSC([maleimide-EO 2 kDa-iron oxide nanoparticle 200 nm]) (not fully specified) [HBP1-EO2k-NP-200: HER2-binding peptide-immobilized 200-nm particle with ethylene oxide linker of molecular weight 2000, listing 2 of 4 here]
Kd [4]: 0.07 nM

MARSGLGGKGSC([maleimide-EO 2 kDa-iron oxide nanoparticle 200 nm]) (not fully specified) [HBP3-EO2k-NP-200: HER2-binding peptide-immobilized 200-nm particle with ethylene oxide linker of molecular weight 2000, listing 3 of 4 here]
Kd [4]: 0.08 nM

MARSGLGGKGSC([maleimide-EO 2 kDa-iron oxide nanoparticle 200 nm]) (not fully specified) [HBP4-EO2k-NP-200: HER2-binding peptide-immobilized 200-nm particle with ethylene oxide linker of molecular weight 2000, listing 4 of 4 here]
Kd [4]: 0.11 nM

MARSGLGGKGSC([maleimide-PEG 300-iron oxide nanoparticle 200 nm]) (not fully specified) [HBP1-EO-NP-200: HER2-binding peptide-immobilized 200-nm particle containing an iron oxide particle]
Kd [5]: 0.67 nM

MARSGLGGKGSC([maleimide-PEG 300-iron oxide nanoparticle 200 nm]) (not fully specified) [HBP2-EO-NP-200: HER2-binding peptide-immobilized 200-nm particle containing an iron oxide particle]
Kd [6]: 0.43 nM
